This note sets out measurements from paper doi:10.1101/2022.05.11.491540.

Like-named read-outs stand apart in the source and are kept apart here.

Series [1] has as its system Sirt7 (Sirt7WT) (human). Kind of series: kinetic titration.
Another series has as its system Sirt7-CLB (human). Kind of series: NanoLuc complementation.
Series [2] has as its system Sirt7 (Sirt7WT) (human). Kind of series: fluorescence polarization.
Series [3] concerns isolated NanoLuc Large Bit. Nature of the series: NanoLuc complementation.

By Kd is commonly meant the constant that tells how readily two partners part at equilibrium. Read a high Kd as lower affinity. The substance nucleosome core particle (unmodified) came in with a Kd in the series on Sirt7 (Sirt7WT) (human) [1] of 2.92 nM.

In the series on Sirt7-CLB (human) (histone H3K18 acetylation), “SMB-AcNucs (H3K18Ac small-bit nucleosome)” displayed a dissociation constant (Kd) of 3.75 nM and a binding signal (fold lower Kd than without ADPr) of 2.5. As for 20 bp FAM-DNA, in the series with Sirt7 (Sirt7WT) (human) [2], the Kd came out at 57.2 nM.

Regarding “SMB-Nucs (unmodified small-bit nucleosome)”, the results for the Kd (in the series on Sirt7-CLB (human); in series [3]) were 3.92 nM and greater than 5 µM, respectively.
